Measured values as given in article doi:10.1101/2023.07.07.548075 (bioRxiv, 2023).

Target: the molecule itself
Assay: SEC

B1: MBP-Δexon3 NLRP3 + GSGAGG linker (human NLRP3 3-1036, Δ95-134 + linker (GSGAGG)) (natural protein)
chain: MASTRCKLARYLEDLEDVDLKKFKMHLEDYPPQKGCIPLPRGQTEKADHVDLATLMIDFNGEEKAWAMAVWIFAAINRRDLYEKAKRDEPKWGSGAGGDYRKKYRKYVRSRFQCIEDRNARLGESVSLNKRYTRLRLIKEHRSQQEREQELLAIGKTKTCESPVSPIKMELLFDPDDEHSEPVHTVVFQGAAGIGKTILARKMMLDWASGTLYQDRFDYLFYIHCREVSLVTQRSLGDLIMSCCPDPNPPIHKIVRKPSRILFLMDGFDELQGAFDEHIGPLCTDWQKAERGDILLSSLIRKKLLPEASLLITTRPVALEKLQHLLDHPRHVEILGFSEAKRKEYFFKYFSDEAQARAAFSLIQENEVLFTMCFIPLVCWIVCTGLKQQMESGKSLAQTSKTTTAVYVFFLSSLLQPRGGSQEHGLCAHLWGLCSLAADGIWNQKILFEESDLRNHGLQKADVSAFLRMNLFQKEVDCEKFYSFIHMTFQEFFAAMYYLLEEEKEGRTNVPGSRLKLPSRDVTVLLENYGKFEKGYLIFVVRFLFGLVNQERTSYLEKKLSCKISQQIRLELLKWIEVKAKAKKLQIQPSQLELFYCLYEMQEEDFVQRAMDYFPKIEINLSTRMDHMVSSFCIENCHRVESLSLGFLHNMPKEEEEEEKEGRHLDMVQCVLPSSSHAACSHGLVNSHLTSSFCRGLFSVLSTSQSLTELDLSDNSLGDPGMRVLCETLQHPGCNIRRLWLGRCGLSHECCFDISLVLSSNQKLVELDLSDNALGDFGIRLLCVGLKHLLCNLKKLWLVSCCLTSACCQDLASVLSTSHSLTRLYVGENALGDSGVAILCEKAKNPQCNLQKLGLVNSGLTSVCCSALSSVLSTNQNLTHLYLRGNTLGDKGIKLLCEGLLHPDCKLQVLELDNCNLTSHCCWDLSTLLTSSQSLRKLSLGNNDLGDLGVMMFCEVLKQQSCLLQNLGLSEMYFNYETKSALETLQEEKPELTVVFEPSW
B1: binds.
